We go through eight molecules from patent US20220089727A1 (CHANGCHUN GENESCIENCE PHARMACEUTICAL, published 2022).

In test [1] the target is T1, CD47 on the surface of Jurkat cells (human, UniProt Q08722 19-323). Nature of the test: cell-based or functional assay.
Test [2] deals with T1, CD47 on the surface of Jurkat cells. Nature of the test: cell-based or functional assay. The source holds these as a separate data set.
Test [3] addresses T2, human CD47 (analyte in the Biacore assay) (human, UniProt Q08722 19-139, limits assumed).
T2 construct: also called human CD47 protein
Nature of the test: SPR (Biacore T200), antibody captured by anti-mouse Fc, human CD47 as analyte.

For test [4], the target named is T3, human CD47-linker peptide-hIgG1Fc (human).
T3 construct: also called Human CD47-hFc; human CD47-hFc
The test is described as follows: competition ELISA: human CD47-hFc coated, blocked ligand human SIRP-his.

Test [5] deals with T4, human CD47ECD-linker peptide-7his (human, UniProt Q08722 19-139).
T4 construct: also called hCD47-his; human CD47-his
The test is described as follows: ELISA, hCD47-his coated at 1 µg/ml, cell culture supernatant.

Test [6] has as its target T5, monkey CD47ECD-linker peptide-7his (monkey).
T5 construct: also called Monkey CD47-his
T5 chain: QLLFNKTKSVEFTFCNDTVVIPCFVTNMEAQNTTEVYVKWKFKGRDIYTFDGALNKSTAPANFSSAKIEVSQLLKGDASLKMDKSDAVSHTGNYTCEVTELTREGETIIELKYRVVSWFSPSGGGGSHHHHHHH
The test is described as follows: ELISA, monkey CD47-his coated at 1 µg/ml, cell culture supernatant.

Test [7] addresses T1, CD47 on the surface of Jurkat cells. Nature of the test: flow cytometry on Jurkat cells, hybridoma supernatant, anti-mouse IgG Fc FITC.
Test [8] addresses T3, human CD47-linker peptide-hIgG1Fc. Nature of the test: competition ELISA: CD47-hFc coated, antibody titrated against human SIRP-his (competitor), anti-His detection.

B1: B6H12 (commercialized CD47 antibody, purchased from Abcam, catalog No. ab3283) (antibody)
chain: EVQLVESGGDLVKPGGSLKLSCAASGFTFSGYGMSWVRQTPDKRLEWVATITSGGTYTYYPDSVKGRFTISRDNAKNTLYLQIDSLKSEDTAIYFCARSLAGNAMDYWGQGTSVTVSSGGGGSGGGGSGGGGSDIVMTQSPATLSVTPGDRVSLSCRASQTISDYLHWYQQKSHESPRLLIKFASQSISGIPSRFSGSGSGSDFTLSINSVEPEDVGVYYCQNGHGFPRTFGGGTKLEIK
As to B1, the phagocytic index in test [1] is 20 Jurkat cells phagocytized per 100 macrophages. The “Apoptotic rate (%)” value in test [2] worked out at 8%. Also, in test [3], the Kd was determined as 27.5 nM, the koff was 0.00364 s⁻¹ and the on-rate (kon) is 132000 M⁻¹ s⁻¹. In addition, the “IC50 (read off the curve)” value in test [4] is ~1 µg/mL.

B2: 059-1.30.1 (antibody, mouse IgG1, V domains shown)
VH: EVQLQQSGPELVKPGASVRMSCKASGYTFTNYVMHWVKQKPGQGLEWIGYINPYNDGTKYSEKFKGKATLTSDKSSITAYMELSSLTSEDSAVYYCAKGGLFTFDYWGQGTTLTVSS
VL: DVVMTQTPLSLPVSLGDQASISCRSSQSLVHSKGNTYLHWYLQKPGQSPKLLIYRVSNRFSGVPDRFSGSGSGTDFTLKISRVEAEDLGVYFCSQSTHVPFTFGSGTKLEIK
notes: also called 059-1.30.1 purified antibody
Take B2: the phagocytic index in test [1] was 70 Jurkat cells phagocytized per 100 macrophages. The “Apoptotic rate (%)” value in test [2] stood at 48%. In test [5], the OD450 came out at 4 OD450. Further, the OD450 in test [6] is 4 OD450. In test [3], this molecule returned a Kd of 30.1 nM, a koff of 0.0128 s⁻¹ and a kon of 424000 M⁻¹ s⁻¹. In test [7], this molecule registered an MFI of 9950 MFI. The “IC50 (read off the curve)” value in test [4] was ~1 µg/mL. Also, the midpoint of the response in test [8], the EC50, lay at 1030 nM.

B3: 059-1.43.1 (antibody, mouse IgG1, V domains shown)
VH: QVQLQQSGAELVRPGASVTLSCKASGYTFTDYEMHWVKQTPVHGLEWIGAIDPETGGTAYNQKFKGKATLTADKSSSTAYMELRSLTSEDSAVYYCTRGTPYAMDYWGQGTSVTVSS
VL: DVVMTQTPLSLPVSLGDQASISCRSSQSLVHSNGNTYLHWYLQKPGQSPKLLIYKVSNRFSGVPDRFSGSGSGTDFTLKISRVEAEDLGVYFCSQSTHVPWTFGGGTKLEIK
notes: also called 059-1.43.1 purified antibody
Turning to B3, in test [1], the phagocytic index is 79 Jurkat cells phagocytized per 100 macrophages. Moreover, in test [2], the “Apoptotic rate (%)” value worked out at 37%. The same molecule had an OD450 in test [5] of 4 OD450. The molecule also came in with an OD450 in test [6] of 4 OD450. In test [3], this molecule showed a Kd of 28.3 nM, a koff of 0.00666 s⁻¹ and a kon of 236000 M⁻¹ s⁻¹. In test [7], this molecule returned an MFI of 18500 MFI. Moreover, the “IC50 (read off the curve)” value in test [4] was ~0.9 µg/mL. The molecule also gave an EC50 in test [8] of 850 nM.

B4: 059-1.51.2 (antibody, mouse IgM, V domains shown)
VH: EVQLQQSGPELVKPGASVKMSCKASGYTFTNYVMHWMKQKPGQGLEWIGYINPYNDDTKYNEKFKDRATLTSDKSSSTAYMELSSLTSEDSAVYYCAKGGYYSMDYWGQGTSVTVSS
VL: DVVMTQTPLSLPVSLGDQASISCRSSQSLVHSKGNTYLHWYLQKPGQSPKLLIYKVSNRFSGVPDRFSGSGSGTDFTLKISRVEAEDLGVYFCSQSTHVPFTFGSGTKLEIK
notes: Mouse hybridoma antibody; light chain type kappa
On to B4, for which the OD450 in test [5] amounted to 0.771 OD450. This molecule displayed an OD450 in test [6] of 0.634 OD450. In test [3], this molecule came in with a Kd of 27.3 nM, a koff of 0.0101 s⁻¹ and a kon of 370000 M⁻¹ s⁻¹. Besides, in test [7], the MFI came to 144 MFI.

B5: 059-1.100.5 (antibody, mouse IgM, V domains shown)
VH: QVQLQQSGAELVRPGASVTLSCKASGYTFTDYEMHWVKQTPVHGLEWIGAIDPETGGTAYNQNFKGKATLTADKSSSTAYMELRSLTSEDSAVYYCTRGTPYAMDYWGQGTSVTVSS
VL: DVVMTQTPLSLPVSLGDQASISCRSSQSLVHSNGNTYLHWYLQKPGQSPKLLIYKVSNRFSGVPDRFSGSGSGTDFTLKISRVEAEDLGVYFCSQSTHVPWTFGGGTKLEIK
notes: Mouse hybridoma antibody; light chain type kappa; also called 059-1.100.5 purified antibody
Take B5: in test [5], the OD450 was found to be 0.81 OD450. In addition, the OD450 in test [6] was found to be 0.617 OD450. In test [3], binding was characterised by a dissociation constant (Kd) of 44 nM, the koff is 0.0069 s⁻¹ and the kon came out at 157000 M⁻¹ s⁻¹. In addition, the MFI in test [7] stood at 216 MFI.

B6: 059-1.11.1 (antibody, mouse IgM, V domains shown)
VH: QVQLQQSGAELVRPGASVTLSCKASGYTFTDYEMHWVKQTPVHGLEWIGAIDPETGGTAYNQKFKGKATLTADKSSSTAYMELRSLTSEDSAVYYCTRGTPYAMDYWGQGTSVTVSS
VL: DVVMTQTPLSLPVSLGDQASISCRSSQSLVHSNGNTYLHWYLQKPGQSPKLLIYKVSNRFSGVPERFSGSGSGTDFTLKISRVEAEDLGVYFCSQSTHVPWTFGGGTKLEIK
notes: Mouse hybridoma antibody; the subclass paragraph gives the light chain type as kappa; also called 059-1.11.1 purified antibody
With B6, in test [5], the OD450 was 3.67 OD450. The OD450 in test [6] stood at 4 OD450. In test [3], this molecule came in with a Kd of 15.5 nM, a koff of 0.00402 s⁻¹ and a kon of 260000 M⁻¹ s⁻¹. Moreover, in test [7], the MFI worked out at 6630 MFI. The same molecule yielded an EC50 in test [8] of 2340 nM.

B7: 059-1.20.1 (antibody, mouse IgG1, V domains shown)
VH: EVQLQQSGPELVKPGASVNMSCKASGYTFTNYFLHWVKQKPGQGLEWIGYINPYNDGTNYNENFKGKATLTSDKSSSTAYMELSSLTSEDSAVYYCAKGGWFSMDYWGQGTSVTVSS
VL: DVVMTQTPLSLPVSLGDQASISCRSSQSLVHSNGKTYLQWYLQKPGQSPKLLIYKVSNRFSGVPDRFSGSGSGTDFTLKISRVEAEDLGVYFCSQSTHVYTFGGGTKLEIK
notes: also called 059-1.20.1 purified antibody
In the case of B7, in test [1], the phagocytic index is 43 Jurkat cells phagocytized per 100 macrophages. Moreover, the “Apoptotic rate (%)” value in test [2] is 33%. Also, the OD450 in test [5] amounted to 4 OD450. The molecule further displayed an OD450 in test [6] of 4 OD450. Moreover, in test [3], the affinity, expressed as Kd, was 25.3 nM; the koff was found to be 0.00548 s⁻¹; the kon was determined as 217000 M⁻¹ s⁻¹. This molecule gave an MFI in test [7] of 15300 MFI. In addition, the “IC50 (read off the curve)” value in test [4] was ~1 µg/mL. In addition, the concentration giving a half-maximal response (EC50) in test [8] was 1190 nM.

B8: 059-1.82.1 (antibody, mouse IgG3, V domains shown)
VH: EVQLQQSGPELVKPGASVKMSCKASGYTFTNYVMHWVKQKPGQGLEWIGYINPYNDGTNYNEKFKGKATLTSDKSSSTAYMELSSLTSEDSAVYYCAKGGWFSMDYWGQGTSVTVSS
VL: DVVMTQTPLSLPVSLGDQASISCRSSQSLVHSNGKTYLQWYLQKPGQSPKLLIYKVSNRFSGVPDRFSGSGSGTDFTLKISRVEAEDLGVYFCSQSTHVYTFGGGTKLEIK
On to B8, for which the phagocytic index in test [1] is 74 Jurkat cells phagocytized per 100 macrophages. Further, the “Apoptotic rate (%)” value in test [2] was determined as 24%. In addition, the OD450 in test [5] turned out to be 4 OD450. In addition, in test [6], the OD450 was 3.9 OD450. In test [3], the Kd amounted to 14.2 nM, the koff turned out to be 0.00364 s⁻¹ and the kon was found to be 256000 M⁻¹ s⁻¹. This molecule registered an MFI in test [7] of 9550 MFI. Besides, the “IC50 (read off the curve)” value in test [4] was ~1 µg/mL. The molecule also gave an EC50 in test [8] of 1030 nM.
